Laboratory results reported in patent publication US20050214309A1, “Methods and compositions for modulating transcription factor activity” (published 2005).

Target: T1, ATF1 (Homo sapiens, UniProt P18846 SEQ:1-271)
T1 sequence: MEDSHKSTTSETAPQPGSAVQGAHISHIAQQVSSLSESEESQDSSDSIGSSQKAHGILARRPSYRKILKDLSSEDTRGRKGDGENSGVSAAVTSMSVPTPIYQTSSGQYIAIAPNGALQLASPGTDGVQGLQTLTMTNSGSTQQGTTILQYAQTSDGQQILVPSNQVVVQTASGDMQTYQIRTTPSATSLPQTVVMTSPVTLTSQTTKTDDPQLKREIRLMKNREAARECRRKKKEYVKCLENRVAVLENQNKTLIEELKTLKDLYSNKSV
Assay: competition; 100-fold excess unlabeled AP1 did not diminish ATF1/CRE complex
Conditions: tags: E. coli pET-11d, DNA-cellulose purified

B1: AP1 oligonucleotide (dsDNA)
DNA 1: CGCTTGATGAGTCAGCCGGAA
DNA 2: TTCCGGCTGACTCATCAAGCG
  binding result: no binding
